Data published in a protein production outcome set (Wang et al. 2014).

Experiment: label from the status in PepcDB records

## MPETAWLSDIETLTYLHATVSTHRHQVRVPETPMHLDAILADQVLTGGLEPRLGQAHLRTLTIMGFPSQTWPGLLDDLNRLAFDYRWVTRAICLDKTDAAKVLGRIRRQWFAKRKSIAAMLKEIMTNEASALMDSDAANKAVDADMALQELGSDLVGAAYVTATVTIWNDDPRIADERLRLVEKVIQGRDFTCMVERVNAVEAWLGSLPGHVYANVRQPPVSTLNLAHMMPFSAVWAGPERDEHFDAPPLFLAKTEGSTPFRFSLHVGDVGHTLVVGPTGAGKSVLLALMALQFRRYARSQIFAFDFGGSIRAAALAMRGDWHDLGGSLAEDASEPVALQPLAGIDAEEERAWAAEWVAAILAREKVEITPDVKEHVWSALNNLASAPKSERTLTGLSVLLQSQALKQALKPYCVGGPWGRLLDAETERVGSADVLAFETEGLIGTGAAAAVLAYLFHRIEHRLDGRPTLLIVDEGWLALDDEGFASQLREWLKTLRKKNASVIFATQSLADIDGSAIAPAIIESCPTRLFLPNERALEPQIATIYERFGLNDRQIEILSRATPKRDYYCQSRRGNRLFELGLGEVALAFTAASSKGDQILIARLMAEHGPTGFAKAWLEARGVAWATDLIITPQKEKLPLEHHHHHH
  protein production: not failed

## MANKFSAAVVYAVFSSFALNFFYQPGHVYASGATGAAQVVTELVARISGHNILPISASLILVNAPLFILAWRGIGKQFTVYTVITVVMSSVFIHFIPVTPLTHEPVINAVFGGAIMGFGVGNAMKSGISSGGTDIVSLYMRKKTGRSVGTLAFLVNGVIIFTAGVLFGWEYMLYSLIAIFVNSRVQDAIFTRQKRLQVMIVTKNPELLTKKLVNRFKHGVTILHDAEGGYTHTSQTVLMTVITMYEYQEFKDIIQKYDEHAFVSISENVRVLGKFAEVED
  protein production: failed

## MFTLALPTPPPLAQARGSGLSAAFAAGAVIPVGDTPGGIALTPTGTRAYVANHGSNTVSVLDTVTDTVIDTIATGGGPNAVAFSPDGTRAYVTVADDGLVSVIDTATNTIVTDIAVGAGATGVAVTPDGSRVYVTLQSSDTVGVIDTATNTVTASIPAAGTPLGLVITPDGTRAYVACLFANAVRVIDTATNTVIATIPVGPVPILLAVSPGGTHVYVTNVGNSTVSVIDTATSAVIATVGVSAQPRFAAVSPDGFHVYVANSGPDTVSVIDTATQTVVENIGVGDGPTGIALLPDGTRAYVTNAVAGTVGVMATTVIPDQGSTAGGTTVTLTGHHLANATAVHFGTAQAVITANTATSMTVTAPAGSGAVPVTVTTAGGTGTLGHFYYVPVPALSGINPAAGPVAGSDDEIVLTGRHLAGAIDVYFGTTRAVIQTVSDNQVTVRAAGAPAPGGTAVTVITAGGSAGGLSYTYLDPSTVTGVSPDSGPTTGGTEVTITGTGLAGTEQVTFNGIPAAFTVVSDSTLTATTPPSGAAGPVGVTVTGPGGAPAGTFTYVSEPDI
  protein production: failed

## DDAGKRHVYVKEIATGTVKRAIEEKDELIKGYGWINDERLFFVMDKGGNENYHLFASNIDGSNTRDLTPFDGVKASILNMLKEQKDYMIISMNKNNPQIFEPYKLNVVTGELTQLYENKDAANPIQGYEFDKDGELRGYSRLVNGIESELYYKDLATGEFRLLKKTHWDDTFGVIAFNYASKNKDEAYVLTNLDSDKTRIVLYDLKQNKIIREIFANEDYDVSGLHLSRKRNYEIDLMAYEGEKSVVVPVSATYKELHKLMEKEFKGKEFSVVDYDDDETILLIAVQSDKLYGTYYQFDTRTKKFTLLYDLMPQLKEEDMAEMRPIKFKSRDGLTIHGYITLPKAALEGKKVPLIVNPHGGPQGIRDSWGFNPETQLFASRGYATLQVNFRISGGYGKEFLRAGFKQIGRKAMDDVEDGVRYAISQGWVDPDRIAIYGASHGGYATLMGLVKTPDLYACGVDYVGVSNIYTFFDSFPEYWKPFKEMVKEIWYDLDNPEEAAIAKEVSPFFQIDKINKPLFVVQGANDPRVNINESDQIVTALRARGFEVPYMVKYNEGHGFHREENSMELYRAMLGFFAKHLK
  protein production: failed

## MNSEFDVIDRYFTRPRRNALLGPGDDAALIACKPGMDWAISVDTLVAGRHFFPDVDPATLGHKVLAVNLSDMAAMGATPCWATLSLTLTETLAQDDIWLKAFSSGFFALADQYQVELIGGDTTGGPLNISVQIIGEVERGKALRRSGAQPGDDIWVSGHLGDAALALQSLQQHVTLTAQEAAPCLAALHTPMPRVALGKALVNVAHSAIDISDGLLADLGHILDRSGVAATIDFDHIPRSPALKNKLQPENTVTNTICQLAIDCLLAGGDDYELCFTVPESKRDAVIQLAQESGILLSRIGKIIPGKGLTVLGTDSNPLIFKNKGYDHFSAR
  protein production: failed

## MADFKIVISDPQAPKEETVVKVKVVGDPEIKFDENVKEGFELPILKMNSKTAEKIKAVHGVATIRMYKPGTKDKVKITGKIIVDDNIPENEVRVNAEQLVNATGTNELEGELFRARAWQIRINDDRTKLLIGLKIGDEFDGSIVGLKNVKLKIRGGSDNSGFPMRPDVMGGVKKRVLLSGPPGFHPREKGERRRKMIRGNTITEDIVQINTVIKYV
  protein production: failed

## MENIKNPKNADDCSDSISKNSHQGVDDSLNQSRSYVCSFCIRGFSNAQALGGHMNIHRRDRAKLRQKLMEDNKDDVVAESDASEVVSLDLNEQQQQQGEALTCDDHDQYVDNDISPKQKLEFWVQESKLDTNDHGKVTEASIDGSSSSHHRDIEVLDLELRLGQSVVKKKTT
  protein production: failed

## MLKIKILIIIFCCIGVVKAQTVIPPSSETPPGWIYYDGDEFNGDVIDSRYWGIYGSPKVGRPTYNQENKAMLQTYRPEQVFIETLPTGEKICRIRSFKSKDAPSPVHPSVKSKTGWWSGALSSRDSDTEKYYPLFCRIEIKAKVPYLYGLWNALWLRHYKGAGVAEIDILEFFTKAFGENPYPAKANQTLHLFNSETQKLGINLPKGQIRYTEIGDDKPGDNFHVYAVQIDPDPVDNNHAIITFLIDNKVNYQIHTRTQLGDAYTDFITKARKEDRLDRVWDIAITGQVGAFDKLDVGYPAEELQQFDFDIDWIRVYVRDPHTRIVGNSKLPHTPEADSFVKDLLSRMTVEEKIGQLSQYVGRTLLTGPESEYLSDSLIARGLVGSVLNISGAKTLRDLQEKNMRHSRIKIPILFGMDVIHGYKTIFPTPLAESCSWDLAAIERAAKIAAIESSAAGLHWTFAPMVDIARDARWGRVVEGAGEDTYLGSEIAKARVNGFQWNLWENNSVLACAKHWVAYGLPQAGRDYAPVDMSERTLFDTYLPPFKACIDAGVLTFMSAFNDINGIPASAHPFLLKDLLRGQWNFNGFVVSDWEAVKQLVAQGVAEDDKDATRLAFNSGIDMDMTDGLYNKYMKELIEAGKISMEDVDNSVSRILHIKYALGLFVDPYKFCNEEYESQTIMKKEFLDAALDMAHKSAVLLKNDNHTLPLAKNVRSIAVVGPLADNQTELLGSWRARGEDRHVTTVLQGIKNKIGGNKTKVGYARGCDFDGEDKSGFKEAVKLASKSDMVIAVVGEKALMSGESRSRAQLDLPGVQEELIKELVATGKPVVVVLMNGRPLSIEWVDKNVSAILETWFLGTSAGTAIADILFGDYNPSGRLTISFPRVEGQVPIYYNYKKSGRPGDMLHSSTTRHIDVPNAPLYPFGYGLSYTTFSYSAPQSTQKEYTRQETISVSVTVTNTGDRDGEETVQLYVNDKVASVVRPVKELKAFKKIFLKAGESKTVQFDISPLALGFYDAAMNYVVEPGEFEIMTGCNSNDLQTISVKLIN
  protein production: failed

## MTFEIAFVLLSLLGMVIALILDKMRPGMILFSVVVLFLCAGILTPKEMLEGFSNKGMITVALLFLVSEGIRQSGALGQVVKKLLPQKRTTVFRAQLRLLPAVAFISAFLNNTPVVVIFAPIIKRWARTVHLPATKFLIPLSYVTILGGICTLIGTSTNLVVHGMILESGHEGFTMFELGKVGIFIAIAGIIYLFAFSKKLLPDARPDTAVPDEEVEEGDKLHRVEAVLGARFPGINKTLGEFNFKRHYGAEVKEIKKRNGQRFINNLEEVILREGDTLVVMADDTFIPTWGESSVFVLLANGNDNEPIPGKGKRWFALILLILMIAGATIGELPVVKEMFPDMKLDMFFFVSVTTIIMAWTKIFPARKYTKYISWDILITIACAFAISKAMVNSGVADKVAGFIIGMSHDYGPHVLLAVLFIITNLFTELITNNAAAALAFPLALSLSVQLGVDPTPFFVVICMAASASFSTPIGYQTNLIVQGIGNYKFMDFVRIGLPLNLITFLISIFLIPLIWPF
  protein production: failed

## MMMGRIKPTDGTAGNPEFNAELVAEKIEAITSPPPAPDTSEPDAAASQPAAPQTAAPPAQTVAQPAPVTPPIVSEPPAPQQAAAAPQPAVDESALRYFASRGDKVRLQAEISRLQALYPNWVPPADPLAVPQNGDKQLEAMWQLYSDGRYAELRKAVADRQAADAGWQPPADLLDRLDVAEGRARLVNASDLKQYATVVDIAAATPSLLTCSEIDVLWRVAEAFIQTERAQRGQDAYTYILKNCTNPAERQATVEKASTLLAYQPMQALLALERPAADGSKEFDAIRDNLARRFMAEGDDEPNLAIAPDYIARLEKLAETQGLASDALLLGWYQLRRNNDADAEKWFRAARAKQDSAAASQGLALALIARKAPEEAEDVMFRWRADSDDATSTYLAATANLMALQPPADLAEDVLHRIAGEVIARKYVPTAQQFGWYARSLNQFQTAARWFETALAWKPDDEPSAYGLVITREQLSDRKGVLDLQRAWAGRSSRITNLEDTSSLMPNAVTPPPAKGTLAAQQPAQPTQHPPAEPLPAERRVILQPGSEVVVRAARPSMETVNVPRGPRQTRGCSTTIDAGQLKPADALSRGWCLMDINRPMEAISAFESALQSPSRKVREDAAYGQSLAYLRAGLSGNAAVAATKAPQNRQRAAELQVAILADRALSAFDAGRYRETLIYLDQRAQLQQERIDLMVLRGYCYLNLKMYGDATRIFEAAAATGSRDAARGLADVRNVTHPDVND
  protein production: failed

## MEDIIVVENLVKKFGDFEAVKGVSFSVKKGEIFAFLGPNGAGKTTTIHMLTTLLKPTSGKAWVAGHDVLKEPREVRRKIGIVFQDQSLDRELTAYENMYIHGKIYGYGGEKLKKRILELLEFVELLEFKDKPVKTFSGGMARRLEIARSLIHEPEVLFLDEPTIGLDPHTRAHMWEYISKMKKEHNMTIFLTTHYMDEAEQLADRVAIIDHGKIIALGTPTELKRMVGKEIIYVRFSEAVECLEGDFIESCRKLPDGRLELNVEDSGRAIPKIFELAQQKGLKIEEITYHKPTLNDVFLHLTGRELREEGPENSFKTMARMRMRMRR
  protein production: not failed

## MEEKSKYLSLVGAGALIGSISTVALLKLLSRSSLKQLNENPETNFLAGNGIESETRPDTVANGQDLLKDEIVSEHLTRNIQFFGLESQHKVTGSYVVVIGLGGVGSHAASMLLRSGVGKLLLVDFDQVSLSSLNRHAVATRADVGIPKAMCLKKHFSSIFPECHIEAKVMLYDSSSEEEILSGKPDFVLDCIDNIDTKVGLLAACVKRGLKVLSATGAGARADPTRIRVADIRESTIDPLSRSVRHRLRRKHGIEGGIPVVFSLEKPKAKLLPFEGTNGEDENPLDYQVVPGFRVRIIPVLGTIPAIFGQIMASYVITQLAGVQVQMEPIVNLDLDHYRLLHQRLIEHEETVYGTSAEVEVDVEEVMYIVKELWHGRSARDETAKDVGRGMWRAMNELMLVRWDAKKPATVSNLVLLKFKEADEHETKTLEEVKESETEFFERVSCVLKKAELDFYG
  protein production: failed

## TDRARRVIVLAQEEARGLNHNYIGTEHILLGLIHEGEGVAAKALESMGISLEAVRQEVEEIIGHGSEPPAGHIPFTPRAKKVLELSLREGLQMGHKYIGTEFLLLGLIREGDGVAAQVLVKLGADLPRVRQQVIQLLSGYEGGESPENNNEGEAVGAG
  protein production: failed

## MSSRPSRGAARLAAILDALPDALVLVNANGTVVNANTIALEAFETPGTALVGRGLLDLLPEFDSRLIPGSMRRPDSMDPRGRTKPTRMVARRTDGSEFPVEVTSANLENGQQAYDGYGYTGD
  protein production: failed
